Data as given in article PMC7385124, “The molecular basis of thioalcohol production in human body odour” (Scientific Reports, 2020).

B1: BsPatB (Bacillus subtilis subsp. subtilis str. 168) (protein)
chain: MNFDKREERLGTQSVKWDKTGELFGVTDALPMWVADMDFRAPEAITEALKERLDHGIFGYTTPDQKTKDAVCGWMQNRHGWKVNPESITFSPGVVTALSMAVQAFTEPGDQVVVQPPVYTPFYHMVEKNGRHILHNPLLEKDGAYAIDFEDLETKLSDPSVTLFILCNPHNPSGRSWSREDLLKLGELCLEHGVTVVSDEIHSDLMLYGHKHTPFASLSDDFADISVTCAAPSKTFNIAGLQASAIIIPDRLKRAKFSASLQRNGLGGLNAFAVTAIEAAYSKGGPWLDELITYIEKNMNEAEAFLSTELPKVKMMKPDASYLIWLDFSAYGLSDAELQQRMLKKGKVILEPGTKYGPGGEGFMRLNAGCSLATLQDGLRRIKAALS
notes: full length; N-terminal MGGGFA and C-terminal ENLYFQG-His10; expressed in E. coli MC1061; homodimer, PLP on Lys234
B2: CjAecD (Corynebacterium jeikeium K411) (protein)
chain: MNATTQNNNLENTQNTCPQDSAVSVPGLATLRARGTMKWTVYDEDVLPLWVAETDFDTCPAVKQAIQSGVDREYFGYERRNQSVEKALAGFLDRRFGWQIEPTWVRLVPDVVKGVATAIDELTPQGSDVIVPVPSYHPFFDVPSAVKRPKVEVEMTKVKKNGAEEWAFDYAALEAAFASTDNPAGVGAMIVCNPYNPLGRAWRPEELAKLVELAAKYNVRLISDEIHAPVVYAPHKHTPLATLSETAARVTVTVLATSKGWNTAGLHCAQMIFTNPDDRAAMAKVSPLRTGSASTLGQVAAEAAYTDGEAWLDSELEYLEGNLDLLERRLPEVLPGAKFIRPEASFLLWVDLSEVPGLADNPGQKLLEGARVAFNEGTMFGAQGAGHVRINFGTSREILNEALDRIAEFAKEHANN
notes: full length; expressed in E. coli MC1061
B3: EcMalY (Escherichia coli K-12) (protein)
chain: MFDFSKVVDRHGTWCTQWDYVADRFGTADLLPFTISDMDFATAPCIIEALNQRLMHGVFGYSRWKNDEFLAAIAHWFSTQHYTAIDSQTVVYGPSVIYMVSELIRQWSETGEGVVIHTPAYDAFYKAIEGNQRTVMPVALEKQADGWFCDMGKLEAVLAKPECKIMLLCSPQNPTGKVWTCDELEIMADLCERHGVRVISDEIHMDMVWGEQPHIPWSNVARGDWALLTSGSKSFNIPALTGAYGIIENSSSRDAYLSALKGRDGLSSPSVLALTAHIAAYQQGAPWLDALRIYLKDNLTYIADKMNAAFPELNWQIPQSTYLAWLDLRPLNIDDNALQKALIEQEKVAIMPGYTYGEEGRGFVRLNAGCPRSKLEKGVAGLINAIRAVR
notes: full length; N-terminal MGGGFA and C-terminal ENLYFQG-His10; expressed in E. coli MC1061

How the values were obtained:
Assay in all cases: purified protein, by the assay type
Parameters in all cases: DTNB thiol release, A412, continuous steady-state Michaelis-Menten kinetics of C-S lyase
Details in all cases: pH 7.8; 37.0 °C
[1] = substrate: CCCC(C)(CCO)SC[C@H](N)C(=O)O
Method: (§1) In vitro activity assays were performed using an Epoch2 (BioTek) plate reader. Reactions were measured in 96-well plate. A continuous assay, described previously[3] was used to measure 3M3SH. A 200 μL reaction contained […], variable amounts of substrate and 0.4 mM DTNB in 50 mM KPi and 200 mM NaCl, pH 7.8. […] Each reaction was incubated at 37 °C for 30 min. Release of the thiol 3M3SH was measured by reaction with DTNB to form 2-nitro-5-thiobenzoic acid (TNB) which is measured at A412 nm every minute. Background rate of DTNB decomposition was subtracted in each assay. Michaelis–Menten plots were derived from 6 to 8 substrate concentrations using Prism Version 5.01 (GraphPad) to calculate the Kcat and KM. Enzyme concentrations were assumed to be the concentration of PLP-bound enzyme with two active sites per enzyme. Velocity curves for all in vitro kinetics are shown in the supplementary information (Supplementary Information Figures S10–S12). Next, we cloned and overexpressed genes encoding a representative range of PatB-type enzymes, with two MetC proteins as controls (Fig. 2, denoted by coloured dots) and purified the proteins for biochemical analysis.

[2] = substrate: CC(C)(CCO)SC[C@H](N)C(=O)O
Method: as §1

[3] = substrate: N[C@@H](CCSC[C@H](N)C(=O)O)C(=O)O
Method: as §1

| Protein | Km [1] [µM] | kcat [1] [s⁻¹] | kcat/Km [1] [M⁻¹ s⁻¹] | Km [2] [µM] | kcat [2] [s⁻¹] | kcat/Km [2] [M⁻¹ s⁻¹] | Km [3] [µM] | kcat [3] [s⁻¹] | kcat/Km [3] [M⁻¹ s⁻¹] |
| --- | --- | --- | --- | --- | --- | --- | --- | --- | --- |
| B1 | 380 | 1.92 | 5110 | 400 | 0.945 | 2360 | 660 | 0.55 | 839 |
| B2 | 740 | 1.71 | 2300 | 800 | 2.65 | 3160 | 210 | 1.18 | 5520 |
| B3 | 17490 | 4.4 | 252 | – | – | – | 2200 | 7.63 | 3470 |
